According to patent US11542537B2, “High-purity steviol glycosides” (PureCircle Sdn Bhd, priority 2012, dated 2023):

Assays:
Format in all cases: biochemical
[1] = Catalytic test of in-vitro expressed UDP-glucosyltransferases, Rebaudioside A to Rebaudioside D (HPLC CAD); settings: 0.5 mM Rebaudioside A, 30° C., T24h sample
Procedure: 18 μL of plasmid solution (containing approximately 1.5 μg of plasmid) was used for in-vitro expression according to the Promega S30 T7 High-Yield Protein Expression System (ref: L1110) kit. The expression medium was produced as follows:
The prepared expression medium mix was added to the plasmid solution and the solution was allowed to incubate at 30° C. for 3 hours while mixing the mixture every 45 minutes. 5 μL of the mixture was frozen whereas the remainder was used for the catalytic test for the conversion of Rebaudioside A to Rebaudioside D.
(§1) 430 μL of a reaction mixture containing 0.5 mM Rebaudioside A, 3 mM MgCl2, 50 mM phosphate buffer (pH7.2) and 2.5 mM UDP-glucose was added to a 1.5 mL sterile microtube. 52 μL of the enzyme expression medium was added and the resulting mixture was allowed to react at 30° C. for 24 hours. 125 μL samples were taken after 2 hours, 16 hours and 24 hours and added to a 115 μL of 60% methanol and 10 μL of 2 N H2SO4. The quenched sample was centrifuged at 18,000 g for 2 minutes at RT. 200 μL was transferred to an HPLC vial and analyzed.
The HPLC assay was performed as follows:
as §1, with “RT.” for “RT. 200 μL was transferred to an HPLC vial and analyzed.”
The HPLC assay was performed as described in EXAMPLE 20.

[2] = LC-MS of Rebaudioside A reaction mixtures of GI No. 460409128 (Example 23); settings: for Steviol glycoside conversion in reaction mixture: Reb A: remaining substrate
Procedure: The reaction mixtures representing GI No. 460409128, particularly the sample “12400 S115N05A7 T24h 130627ABA” of EXAMPLE 20 (hereinafter S115N05A7), and the sample “12400 S129N04 T45h 130712ABA” of EXAMPLE 22 (hereinafter S129N04) were additionally assayed by LC-MS to identify the unknown glycosides. An Agilent 1200 series HPLC system, equipped with binary pump (G1312B), autosampler (G1367D), thermostatted column compartment (G1316B), DAD detector (G1315C), connected with Agilent 6110A MSD, and interfaced with “LC/MSD Chemstation” software, was used.

[3] = Activity for Rubusoside to Rebaudioside E conversion (UGTSL, UGTSL2, UGTLB lysates); settings: based on initial concentration of Rubusoside; reaction time 45 h. (UGTSL), 2 h. (UGTSL2)
Procedure: Activity tests were performed at 3 mL scale with 600 μL of lysate for the transformation of Rubusoside using 0.5 mM of substrate, 2.5 mM of UDP-Glucose and 3 mM MgCl2 in 50 mM Sodium Phosphate buffer at pH 7.2. The HPLC assay was performed as described in EXAMPLE 20.
Activity tests were performed at 3 mL scale with 600 μL of lysate for the transformation of Rubusoside using 0.5 mM of substrate, 2.5 mM of UDP-Glucose and 3 mM MgCl2 in 50 mM Sodium Phosphate buffer at pH 7.2. Samples were taken and analyzed by HPLC. The corresponding chromatogram is depicted in FIG. 65.

[4] = LCMS of Rubusoside conversion products with UGTSL, UGTSL2, UGTLB; settings: UGTSL2 2 hrs, UGTLB 5 hrs, UGTSL 45 hrs
Procedure: (§2) Conversion of stevioside with UGTSL and UGTSL2 was conducted in similar manner to Example 28, and the conversion of rubusoside with UGTSL and UGTSL2 was conducted similarly to Example 29. Conversions of rubusoside and stevioside with UGTLB was conducted similarly to Example 32.
(§3) The reaction mixtures were analyzed by LCMS to determine all reaction products.

[5] = LCMS of Stevioside conversion products with UGTSL, UGTSL2, UGTLB; settings: UGTSL2 2 hrs, UGTLB 2 hrs, UGTSL 22 hrs
Procedure: as §2, §3

[6] = UGT76G1 lysate activity test, Stevioside to Rebaudioside A (HPLC); settings: in-vivo produced UGT76G1 thawed lysate, 0.5 mM Stevioside, 30° C.
Procedure: The total volume of the reaction was 5.0 mL with the following composition: 50 mM sodium phosphate buffer pH 7.2, 3 mM MgCl2, 2.5 mM UDP-glucose, 0.5 mM Stevioside and 500 μL of UGT76G1 thawed lysate. The reactions were run at 30° C. on an orbitary shaker at 135 rpm. For each sample, 460 μL of the reaction mixture was quenched with 40 μL of 2N H2SO4 and 420 μL of methanol/water (6/4). The samples were immediately centrifuged and kept at 10° C. before analysis by HPLC (CAD).
(§4) Activity tests were performed on a 5 mL scale with 500 μL of thawed lysate for the transformation of Stevioside to Rebaudioside A and Rebaudioside D to Rebaudioside M using 0.5 mM of substrate, 2.5 mM of UDP-Glucose and 3 mM MgCl2 in 50 mM Sodium Phosphate buffer at pH 7.2. Samples were taken and analyzed by HPLC.

[7] = UGT76G1 activity test, Rebaudioside D to Rebaudioside M (HPLC); settings: in-vitro produced UGT76G1, 0.5 mM Rebaudioside D, after 120 h
Procedure: The total volume of the reaction was 2 mL with the following composition: 50 mM sodium phosphate buffer pH 7.2, 3 mM MgCl2, 3.8 mM UDP-glucose, 0.5 mM Rebaudioside D and 180 μL of in-vitro produced UGT76G1. The reactions were run at 30° C. on an orbitary shaker at 135 rpm. For each sample, 400 μL of reaction mixture was quenched with 40 μL of 2N H2SO4 and 360 μL of 60% MeOH. After centrifugation, the supernatant was analyzed by HPLC (CAD).
as §4
5 mL of the lysate of Example 12 was used to transform Rebaudioside D to Rebaudioside M on a 50 mL scale. The reaction medium consisted of 50 mM Sodium Phosphate buffer pH 7.2, 3 mM of MgCl2, 2.5 mM of UDP-Glucose and 0.5 mM of Rebaudioside D. After allowing the reaction to be shaken at 30° C. for 90 h. 50 mL of ethanol was added and the resulting mixture was allowed to stir at −20° C. for 1 h. After centrifugation at 5000 g for 10 min. the supernatant was purified via ultrafiltration (Vivaflow MWCO 30000). […]

[8] = Conversion of Rebaudioside E to Rebaudioside D with UGT76G1 lysate; settings: 500 μL UGT76G1 thawed lysate, 0.5 mM Rebaudioside E, 30° C., pH 7.5
Procedure: The total volume of the reaction was 5.0 mL with the following composition: 100 mM potassium phosphate buffer pH 7.5, 3 mM MgCl2, 2.5 mM UDP-glucose, 0.5 mM Rebaudioside E and 500 μL of UGT76G1 thawed lysate (UGT76G1 gene was cloned in pET30a+ vector and expressed in E. coli BL21 (DE3)). The reactions were run at 30° C. on an orbitary shaker at 135 rpm. For sampling 300 μL of the reaction mixture was quenched with 30 μL of 2N H2SO4 and 270 μL of methanol/water (6/4). The samples were immediately centrifuged and kept at 10° C. before analysis by HPLC (CAD detection).

[9] = Catalytic reaction with in-vitro produced UGT91D2, Rebaudioside A to Rebaudioside D; settings: in-vitro produced UGT91D2, 0.1 mM Rebaudioside A, after 120 h
Procedure: The total volume of the reaction was 0.5 mL with the following composition: 50 mM sodium phosphate buffer pH 7.2, 3 mM MgCl2, 3.8 mM UDP-glucose, 0.1 mM Rebaudioside A and 180 μL of in-vitro produced UGT91D2. The reactions were run at 30° C. on an orbitary shaker at 135 rpm. For each sample, 450 μL of reaction mixture was quenched with 45 μL of 2N H2SO4 and 405 μL of 60% MeOH. After centrifugation, the supernatant was analyzed by HPLC (CAD). HPLC indicated a 4.7% conversion of rebaudioside A to rebaudioside D after 120 h.

B1: S115N05 A7: UGTSL, Solanum lycopersicum glycosyltransferase, SEQ ID 5; S129N04 is the sample of the in-vivo produced enzyme (protein, listed as Solanum lycopersicum)
chain: MSPKLHKELFFHSLYKKTRSNHTMATLKVLMFPFLAYGHISPYLNVAKKLADRGFLIYFCSTPINLKSTIEKIPEKYADSIHLIELHLPELPQLPPHYHTTNGLPPNLNQVLQKALKMSKPNFSKILQNLKPDLVIYDILQRWAKHVANEQNIPAVKLLTSGAAVFSYFFNVLKKPGVEFPFPGIYLRKIEQVRLSEMMSKSDKEKELEDDDDDDDLLVDGNMQIMLMSTSRTIEAKYIDFCTALTNWKVVPVGPPVQDLITNDVDDMELIDWLGTKDENSTVFVSFGSEYFLSKEDMEEVAFALELSNVNFIWVARFPKGEERNLEDALPKGFLERIGERGRVLDKFAPQPRILNHPSTGGFISHCGWNSAMESIDFGVPIIAMPMHLDQPMNARLIVELGVAVEIVRDDDGKIHRGEIAETLKGVITGKTGEKLRAKVRDISKNLKTIRDEEMDAAAEELIQLCRNGN
For B1, the “Steviol glycoside conversion in reaction mixture: Reb UNK” value (shortened to “Steviol glycoside conversion … Reb UNK”) ([1]; Reb UNK later identified as reb D2) was 23.3 % area, the “Steviol glycoside conversion in reaction mixture: Reb A” value (from here on “Steviol glycoside conversion … Reb A”) ([1]; remaining substrate) was 46.7 % area and the “Steviol glycoside conversion … Reb UNK” value ([2]; Reb UNK later identified as reb D2, listed as S115N05A7) was 19.93 % area. The “Steviol glycoside conversion … Reb UNK” value ([2]; Reb UNK later identified as reb D2, listed as S129N04) was 21.22 % area, the “Steviol glycoside conversion in reaction mixture: Reb D” value ([2]; listed as S115N05A7) was 20.35 % area and the “Steviol glycoside conversion in reaction mixture: Reb D” value ([2]; listed as S129N04) was 23.73 % area. For the same molecule, the “Steviol glycoside conversion … Reb A” value ([2]; listed as S115N05A7) was 53.24 % area, the “Steviol glycoside conversion … Reb A” value ([2]; listed as S129N04) was 49.00 % area and the “Steviol glycoside conversion in reaction mixture: Unknown@RT3.5” value ([2]; unknown later identified as reb M2, listed as S115N05A7) was 6.47 % area. The “Steviol glycoside conversion in reaction mixture: Unknown@RT3.5” value ([2]; unknown later identified as reb M2, listed as S129N04) was 6.05 % area, the “Rubusoside conv. (reactiontime)” value [3] was 70% (45 h.) and the “LC-MS, peak area ratio (%) Reb D” value [4] was 3.45%. The “LC-MS, peak area ratio (%) Reb E” value [4] was 35.88%, the “LC-MS, peak area ratio (%) Rub” value [4] was 7.82% and the “LC-MS, peak area ratio (%) Stev” value [4] was 2.37%. The “LC-MS, peak area ratio (%) Unknown peak #1 (MW804) RT 30.70 min” value [4] was 20.38%, the “LC-MS, peak area ratio (%) Unknown peak #2 (MW804) RT 49.50 min” value [4] was 27.75% and the “LC-MS, peak area ratio (%) Unknown peak #3 (MW804) RT 50.40 min” value [4] was 2.35%. For the same molecule, the “LC-MS, peak area ratio (%) Reb D” value [5] was 0.54%, the “LC-MS, peak area ratio (%) Reb E” value [5] was 49.68% and the “LC-MS, peak area ratio (%) Stev” value [5] was 25.24%. For the same molecule, the “LC-MS, peak area ratio (%) Unknown peak #1 (MW966) RT = 22.60 min” value [5] was 3.97% and the “LC-MS, peak area ratio (%) Unknown peak #2 (MW966) RT = 26.50 min” value [5] was 20.56%.

B2: UGT76G1: UDP-glucosyltransferase of Stevia rebaudiana, Genbank AAR06912.1, produced in E. coli or in vitro (protein, UniProt Q6VAB4 1-458, looked up)
UDP-glycosyltransferase 76G1: MENKTETTVRRRRRIILFPVPFQGHINPILQLANVLYSKGFSITIFHTNFNKPKTSNYPHFTFRFILDNDPQDERISNLPTHGPLAGMRIPIINEHGADELRRELELLMLASEEDEEVSCLITDALWYFAQSVADSLNLRRLVLMTSSLFNFHAHVSLPQFDELGYLDPDDKTRLEEQASGFPMLKVKDIKSAYSNWQILKEILGKMIKQTKASSGVIWNSFKELEESELETVIREIPAPSFLIPLPKHLTASSSSLLDHDRTVFQWLDQQPPSSVLYVSFGSTSEVDEKDFLEIARGLVDSKQSFLWVVRPGFVKGSTWVEPLPDGFLGERGRIVKWVPQQEVLAHGAIGAFWTHSGWNSTLESVCEGVPMIFSDFGLDQPLNARYMSDVLKVGVYLENGWERGEIANAIRRVMVDEEGEYIRQNARVLKQKADVSLMKGGSSYESLESLVSYISSL
With B2 the “conversion of stevioside to rebaudioside A (HPLC)” value [6] was “almost complete conversion”, the “conversion of rebaudioside D to rebaudioside M (HPLC)” value [7] was 80% and the “conversion of Rebaudioside E to Rebaudioside D (reaction profile)” value [8] was “complete conversion”.

B3: UGT91D2: UDP-glucosyltransferase, Genbank ACE87855.1, in-vitro produced (protein, UniProt B3VI56 1-473, looked up)
UDP-glycosyltransferase 91D2: MATSDSIVDDRKQLHVATFPWLAFGHILPYLQLSKLIAEKGHKVSFLSTTRNIQRLSSHISPLINVVQLTLPRVQELPEDAEATTDVHPEDIPYLKKASDGLQPEVTRFLEQHSPDWIIYDYTHYWLPSIAASLGISRAHFSVTTPWAIAYMGPSADAMINGSDGRTTVEDLTTPPKWFPFPTKVCWRKHDLARLVPYKAPGISDGYRMGLVLKGSDCLLSKCYHEFGTQWLPLLETLHQVPVVPVGLLPPEVPGDEKDETWVSIKKWLDGKQKGSVVYVALGSEVLVSQTEVVELALGLELSGLPFVWAYRKPKGPAKSDSVELPDGFVERTRDRGLVWTSWAPQLRILSHESVCGFLTHCGSGSIVEGLMFGHPLIMLPIFGDQPLNARLLEDKQVGIEIPRNEEDGCLTKESVARSLRSVVVEKEGEIYKANARELSKIYNDTKVEKEYVSQFVDYLEKNTRAVAIDHES
modifications: in vitro produced
notes: UDP-glucosyltransferase, Genbank ACE87855.1, in-vitro produced
With B3 the “conversion of rebaudioside A to rebaudioside D (HPLC)” value [9] was 4.7%.
